# Experimental data reported in article PMC3728988, “Kinetic mechanism of the dimeric ATP sulfurylase from plants” (Bioscience Reports, 2013).
# T1: soybean ATP sulfurylase isoform 1 (GmATPS1) (Glycine max, UniProt Q8SAG1)
# T1 construct: homodimer
# T1 sequence (Q8SAG1 49-462): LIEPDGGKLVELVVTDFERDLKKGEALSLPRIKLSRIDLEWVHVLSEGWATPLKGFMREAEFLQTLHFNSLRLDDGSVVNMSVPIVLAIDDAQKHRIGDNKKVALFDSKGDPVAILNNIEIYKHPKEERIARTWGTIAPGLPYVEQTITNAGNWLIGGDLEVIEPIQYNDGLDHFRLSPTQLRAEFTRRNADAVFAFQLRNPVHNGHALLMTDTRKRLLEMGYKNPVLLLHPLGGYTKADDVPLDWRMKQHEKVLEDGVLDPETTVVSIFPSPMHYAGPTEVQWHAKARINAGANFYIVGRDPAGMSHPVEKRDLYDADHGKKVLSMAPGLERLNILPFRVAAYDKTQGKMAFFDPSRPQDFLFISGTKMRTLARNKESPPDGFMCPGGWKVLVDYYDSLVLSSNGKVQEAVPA
# B1: soybean ATP sulfurylase isoform 1 (GmATPS1) (Glycine max) (protein)
# chain: T1 sequence (Q8SAG1 49-462)
# How the values were obtained:
# [1] = biological target: T1, soybean ATP sulfurylase isoform 1 (GmATPS1); test: dead-end inhibition kinetics, coupled spectrophotometric assay of APS synthesis; type: biochemical
# purified protein [2] = substrate: Nc1ncnc2c1ncn2[C@@H]1O[C@H](COP(=O)(O)OP(=O)(O)OP(=O)(O)O)[C@@H](O)[C@H]1O; test: purified protein; settings: Mg2+ binds first in the forward reaction
# purified protein [3] = substrate: O=S(=O)(O)O; test: purified protein; settings: ATP, Mg2+ binds after ATP; chlorate competes with it
Molecule,Ki [1],Km (purified protein [2]),Km (purified protein [3])
[O-][Cl+2]([O-])O [chlorate],103 ± 19 µM,–,–
B1,–,221 ± 41 µM,"1,030±280 μM"
